Laboratory results as given in PMC6093294.

Tests used:
Assay in all cases: purified protein
purified protein [1] = substrate: CCCCCCCCCCCCCCCC(=O)SCCNC(=O)CCNC(=O)[C@H](O)C(C)(C)COP(=O)(O)OP(=O)(O)OC[C@H]1O[C@@H](n2cnc3c(N)ncnc32)[C@H](O)[C@@H]1OP(=O)(O)O; settings: 60 mM tryptamine, 300 mM Tris pH 8.0, 150 μM DTNB, 22°C
purified protein [2] = substrate: CCCCC/C=C\C/C=C\C/C=C\C/C=C\CCCC(=O)SCCNC(=O)CCNC(=O)[C@H](O)C(C)(C)COP(=O)(O)OP(=O)(O)OC[C@H]1O[C@@H](n2cnc3c(N)ncnc32)[C@H](O)[C@@H]1OP(=O)(O)O; type: biochemical, Bombyx mori; settings: 60 mM tryptamine, 300 mM Tris pH 8.0, 150 μM DTNB, 22°C
purified protein [3] = substrate: CCCCCCCC/C=C\CCCCCCCC(=O)SCCNC(=O)CCNC(=O)[C@H](O)C(C)(C)COP(=O)(O)OP(=O)(O)OC[C@H]1O[C@@H](n2cnc3c(N)ncnc32)[C@H](O)[C@@H]1OP(=O)(O)O; type: biochemical, Bombyx mori; settings: 60 mM tryptamine, 300 mM Tris pH 8.0, 150 μM DTNB, 22°C
purified protein [4] = substrate: CCCCCCCCCCCC(=O)SCCNC(=O)CCNC(=O)[C@H](O)C(C)(C)COP(=O)(O)OP(=O)(O)OC[C@H]1O[C@@H](n2cnc3c(N)ncnc32)[C@H](O)[C@@H]1OP(=O)(O)O; type: biochemical, Bombyx mori; settings: 60 mM tryptamine, 300 mM Tris pH 8.0, 150 μM DTNB, 22°C
purified protein [5] = substrate: CCCCCCCCCCCCCC(=O)SCCNC(=O)CCNC(=O)[C@H](O)C(C)(C)COP(=O)(O)OP(=O)(O)OC[C@H]1O[C@@H](n2cnc3c(N)ncnc32)[C@H](O)[C@@H]1OP(=O)(O)O; type: biochemical, Bombyx mori; settings: 60 mM tryptamine, 300 mM Tris pH 8.0, 150 μM DTNB, 22°C
purified protein [6] = substrate: NCCc1c[nH]c2ccccc12; type: biochemical, Bombyx mori; settings: 100 μM oleoyl-CoA, 300 mM Tris pH 8.0, 150 μM DTNB, 22°C
purified protein [7] = substrate: NCCc1ccc(O)cc1; type: biochemical, Bombyx mori; settings: 100 μM oleoyl-CoA, 300 mM Tris pH 8.0, 150 μM DTNB, 22°C
purified protein [8] = substrate: NC[C@H](O)c1ccc(O)cc1; type: biochemical, Bombyx mori; settings: 100 μM oleoyl-CoA, 300 mM Tris pH 8.0, 150 μM DTNB, 22°C

B1: Bm-iAANAT (insect arylalkylamine N-acyltransferase from Bombyx mori) (Bombyx mori) (protein)
chain: MAVTSTRGIVNLKEKGHFERENARVEKYTLGDELPAQLSSLEIRPRKMSVPAYTIQRLTYNDRDLVLKFLRRFFFRDEPMNLAVNLLETPESRCTELDDYAAATLSDGVSVAAVDENGDYVGVIINGIVRREEVDYTDKSEDCPNPKFRRILKVLGHLDREARIWDKLPETCDSVLEIRIASTHSSWRGRGLMRVLCEEAERLAKAMGAGALRMDTTSAFSAAAAERLNYKMAFGVRYADLPYAPQPEAPHLEARVYIKEL
Purified protein [1]
  Km: 1.1 ± 0.30 µM
  kcat: 0.51 s⁻¹
  kcat/Km: 490000 M⁻¹ s⁻¹
Purified protein [2]
  Km: 1.2 ± 0.67 µM
  kcat: 0.27 ± 0.02 s⁻¹
  kcat/Km: 240000 ± 130000 M⁻¹ s⁻¹
Purified protein [3]
  Km: 1.7 ± 0.51 µM
  kcat: 0.42 ± 0.02 s⁻¹
  kcat/Km: 240000 ± 70000 M⁻¹ s⁻¹
Purified protein [4]
  Km: 0.97 ± 0.12 µM
Purified protein [5]
  Km: 0.92 ± 0.20 µM
  kcat: 0.66 ± 0.01 s⁻¹
  kcat/Km: 720000 ± 150000 M⁻¹ s⁻¹
Purified protein [6]
  Km: 7000 ± 500 µM
  kcat: 0.72 ± 0.01 s⁻¹
  kcat/Km: 100 ± 7 M⁻¹ s⁻¹
Purified protein [7]
  Km: 84000 ± 12000 µM
  kcat: 2.7 ± 0.19 s⁻¹
  kcat/Km: 32 ± 5.3 M⁻¹ s⁻¹
Purified protein [8]
  Km: 65000 ± 16000 µM
  kcat: 0.31 ± 0.04 s⁻¹
  kcat/Km: 4.7 ± 1.2 M⁻¹ s⁻¹
